No end group written: not given here.

The target in the test is T1, biotinylated ALFA-tag peptide (WT) (synthetic construct, also: biotin with double DoA linker, end not given here).
T1 chain: SRLEEELRRRLTE
Briefly: BLI.

B1: ALFA nanobody (NbALFA) (VHH)
VHH: EVQLQESGGGLVQPGGSLRLSCTASGVTISALNAMAMGWYRQAPGERRVMVAAVSERGNAMYRESVQGRFTVTRDFTNKMVSLQMDNLKPEDTAVYYCHVLEDRVDSFHDYWGQGTQVTVSS
The Kd is the concentration at which binding is half-saturated. Lower therefore signals tighter binding. Take B1: the Kd stood at 0.165 ± 0.002 nM.
